Data as given in the supplement of paper PMC9112550, “Optimization of the antimicrobial peptide Bac7 by deep mutational scanning” (BMC Biology, 2022).

system: Escherichia coli TOP10; experiment: shrunken log2 fold change of peptide-encoding DNA abundance (4.5 h post-induction vs induction); higher = less antimicrobial activity (less host growth inhibition); details: time post-induction: 4.5 h; library: site-saturation at positions 5, 18, 19, 20
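Note: peptides expressed intracellularly from a pBAD plasmid library in pooled LB shake-flask culture, induced with 0.3% L-arabinose, DNA abundance read by NGS, three biological replicates, DESeq2 with apeglm shrinkage.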

Sequence | shrunken log2 fold change
RRIRDRPPRLPRPRPRPCPPPRP | -0.249
RRIRYRPPRLPRPRPRPSTCPRP | -0.687
RRIRKRPPRLPRPRPRPHRTPRP | -0.19
RRIRGRPPRLPRPRPRPGQHPRP | 0.0185
RRIRCRPPRLPRPRPRPIKAPRP | 0.0144
RRIRKRPPRLPRPRPRPRPKPRP | 1.03
RRIRFRPPRLPRPRPRPCHTPRP | -0.17
RRIRCRPPRLPRPRPRPMFVPRP | -0.261
RRIRSRPPRLPRPRPRPTQWPRP | 0.354
RRIRLRPPRLPRPRPRPLFPPRP | -0.203
RRIRIRPPRLPRPRPRPLFNPRP | -1.02
RRIRPRPPRLPRPRPRPYKCPRP | -0.0297
RRIRERPPRLPRPRPRPCGYPRP | -0.239
RRIRNRPPRLPRPRPRPMRMPRP | -0.00372
RRIRGRPPRLPRPRPRPFFKPRP | 0.186
RRIRIRPPRLPRPRPRPNWNPRP | -0.388
RRIRVRPPRLPRPRPRPYPMPRP | -0.299
RRIRMRPPRLPRPRPRPNCFPRP | 0.153
RRIRARPPRLPRPRPRPAQQPRP | 0.156
RRIRSRPPRLPRPRPRPELFPRP | 0.104
RRIRIRPPRLPRPRPRPKLFPRP | -0.179
RRIRMRPPRLPRPRPRPDPYPRP | -0.0396
RRIRDRPPRLPRPRPRPRKTPRP | 0.379
RRIRFRPPRLPRPRPRPLLVPRP | 0.0528
RRIRQRPPRLPRPRPRPYELPRP | -0.695

Sequence | shrunken log2 fold change
RRIRLRPPRLPRPRPRPIVWPRP | -0.027
RRIRNRPPRLPRPRPRPNHPPRP | -0.318
RRIRFRPPRLPRPRPRPFIEPRP | -0.894
RRIRRRPPRLPRPRPRPAVWPRP | 0.399
RRIRLRPPRLPRPRPRPHTWPRP | -0.202
RRIRARPPRLPRPRPRPYPQPRP | -0.166
RRIRFRPPRLPRPRPRPTVFPRP | -0.0947
RRIRMRPPRLPRPRPRPQDRPRP | 0.179
RRIRLRPPRLPRPRPRPQDGPRP | -0.0806
RRIRRRPPRLPRPRPRPPCIPRP | 0.156
RRIRMRPPRLPRPRPRPGVNPRP | -0.0818
RRIRHRPPRLPRPRPRPQNQPRP | -0.563
RRIRNRPPRLPRPRPRPHNMPRP | -1.06
RRIRPRPPRLPRPRPRPKYYPRP | -0.783
RRIRFRPPRLPRPRPRPVKWPRP | 0.0401
RRIRGRPPRLPRPRPRPQRDPRP | 0.419
RRIRKRPPRLPRPRPRPAKEPRP | -0.0233
RRIRIRPPRLPRPRPRPGMEPRP | -0.375
RRIRDRPPRLPRPRPRPCTLPRP | -0.302
RRIRLRPPRLPRPRPRPIRMPRP | -0.0243
RRIRVRPPRLPRPRPRPVAKPRP | 0.233
RRIRYRPPRLPRPRPRPTCEPRP | 0.00952
RRIRDRPPRLPRPRPRPGFCPRP | 0.567
RRIRARPPRLPRPRPRPSAKPRP | 0.471
RRIRCRPPRLPRPRPRPEVIPRP | -0.083

Sequence | shrunken log2 fold change
RRIRERPPRLPRPRPRPAQYPRP | 0.0972
RRIRSRPPRLPRPRPRPRAFPRP | 0.304
RRIRYRPPRLPRPRPRPTEHPRP | -0.501
RRIRERPPRLPRPRPRPAGCPRP | -0.0935
RRIRNRPPRLPRPRPRPNLNPRP | -0.557
RRIRKRPPRLPRPRPRPLMWPRP | 0.284
RRIRIRPPRLPRPRPRPIFYPRP | -0.775
RRIRCRPPRLPRPRPRPRLKPRP | 0.0782
RRIRDRPPRLPRPRPRPDWCPRP | 0.163
RRIRKRPPRLPRPRPRPWWFPRP | -0.0467
RRIRRRPPRLPRPRPRPRVTPRP | 0.766
RRIRQRPPRLPRPRPRPRIGPRP | 0.341
RRIRVRPPRLPRPRPRPRTWPRP | 0.0366
RRIRPRPPRLPRPRPRPVEIPRP | 0.26
RRIRERPPRLPRPRPRPAGPPRP | -0.0342
RRIRQRPPRLPRPRPRPEQHPRP | -0.0137
RRIRERPPRLPRPRPRPYDCPRP | -0.0948
RRIRHRPPRLPRPRPRPQSSPRP | -0.0152
RRIRDRPPRLPRPRPRPFHSPRP | -0.13
RRIRVRPPRLPRPRPRPANQPRP | -0.186
RRIRNRPPRLPRPRPRPCCIPRP | -0.00191
RRIRPRPPRLPRPRPRPRHIPRP | -0.0802
RRIRPRPPRLPRPRPRPGKQPRP | -0.0793
RRIRNRPPRLPRPRPRPLGEPRP | -0.0638
RRIRLRPPRLPRPRPRPISTPRP | -0.161
